Experiment [1] concerns the target T1, human IgE (human, UniProt P01854).
T1 chain: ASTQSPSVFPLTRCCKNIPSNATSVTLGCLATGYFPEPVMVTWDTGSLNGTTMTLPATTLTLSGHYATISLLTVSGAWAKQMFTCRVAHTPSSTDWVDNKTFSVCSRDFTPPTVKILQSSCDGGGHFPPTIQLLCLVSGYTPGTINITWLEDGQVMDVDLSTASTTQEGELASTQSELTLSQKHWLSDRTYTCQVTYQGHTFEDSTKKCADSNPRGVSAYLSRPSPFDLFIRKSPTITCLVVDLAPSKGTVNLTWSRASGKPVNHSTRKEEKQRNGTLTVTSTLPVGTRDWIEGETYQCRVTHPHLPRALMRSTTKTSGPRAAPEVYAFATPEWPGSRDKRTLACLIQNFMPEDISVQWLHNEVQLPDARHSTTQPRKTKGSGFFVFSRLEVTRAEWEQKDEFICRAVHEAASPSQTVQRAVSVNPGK
Put plainly: ELISA, pH 5.5.

Experiment [2] addresses T1, human IgE. Put plainly: ELISA, pH 7.4.
Experiment [3] addresses T1, human IgE. Put plainly: competition ELISA.
For experiment [4], the target named is T1, human IgE. Put plainly: SPR, pH 6.0.
Experiment [5] concerns the target T1, human IgE. Put plainly: SPR, pH 7.4.
Experiment [6] deals with T1, human IgE. Put plainly: SPR.
For experiment [7], the target named is T1, human IgE. Put plainly: competition SPR, pH 6.0.
In experiment [8] the target is T1, human IgE. Put plainly: competition SPR, pH 7.4.
In experiment [9] the target is T1, human IgE. Put plainly: competition SPR, pH 6.0.
The target of experiment [10] is T1, human IgE. Put plainly: competition SPR, pH 7.4.
The target in experiment [11] is T1, human IgE. Put plainly: competition ELISA, pH 6.0.
Experiment [12] has as its target T1, human IgE. Put plainly: competition ELISA, pH 7.4.
For experiment [13], the target named is T1, human IgE. Put plainly: competition ELISA, pH 7.4.
Experiment [14] has as its target T1, human IgE. Put plainly: competition ELISA, pH 6.0.
For experiment [15], the target named is T1, human IgE. Put plainly: competition SPR, pH 7.4.
For experiment [16], the target named is T1, human IgE. Put plainly: competition SPR, pH 5.5.

Where “and” joins values, the source holds several entries; their conditions need not be identical. Equal values may be shown once.

B1: 18E2_VLY34H_MG (18E2VL) (antibody, V domains shown)
VH: QLLESGGGLVQPGGSLRLSCAASGFTFSSYVMSWVRQAPGKGLEWVSSIYHDGSHTYYADFVKGRFTISRDNSKNTLYLQMNSLRAEDTAVYYCAKGTSYSGSYYYTDPFFGSWGQGTLVTVSS
VL: SSELTQDPAVSVALGQTVRITCQGDRLGSRYIHWYQQKPGQAPVLVIYDDDRRPSGIPDRFSGSSSGNTASLTITGAQAEDEADYYCQSADSSGNPVFGGGTQLTVL
Turning to B1, the EC50 was 0.0269 µg/mL and 0.0323 µg/mL with human IgE [1]; 0.02 µg/mL and 0.0163 µg/mL with human IgE [2]. For the same molecule, the 50% inhibitory concentration (IC50) with human IgE [3] is 6.06 nM.

B2: 18E2VLHis MG hIgG1-ABDEG (antibody, V domains shown)
VH: QLLESGGGLVQPGGSLRLSCAASGFTFSSYVMSWVRQAPGKGLEWVSSIYHDGSHTYYADFVKGRFTISRDNSKNTLYLQMNSLRAEDTAVYYCAKGTSYSGSYYYTDPFFGSWGQGTLVTVSS
VL: SSELTQDPAVSVALGQTVRITCQGDRLGSRYIHWYQQKPGQAPVLVIYDDDRRPSGIPDRFSGSSSGNTASLTITGAQAEDEADYYCQSADSSGNPVFGGGTQLTVL
With B2, the figures for the dissociation constant Kd with human IgE [4] and with human IgE [5] were 205 nM and 5.91 nM, respectively.

B3: OMA VH15-VL3 (antibody, V domains shown)
VH: EVQLVESGGGLVQPGGSLRLSCAVSGYSITSGHRWEWIRQAPGKGLEWVASIHYDGSTNYNPSVKGRITISRDDSKNTFYLQMNSLRAEDTAVYYCARATHYFGHWHFAVWGQGTLVTVSS
VL: DIQLTQSPSSLSASVGDRVTITCRASQSVDYDGDSYMNWYQQKPGKAPKLLIEWGSYLRSGVPSRFSGSGSGTDFTLTISSLQPEDFATYYCQQNAEDPYTFGQGTKVEIK
In turn, B3 showed a Kd in the experiment with human IgE [6] of 0.0874 pM.

B4: 13E4 (antibody, V domains shown)
VH: ELQLVESGGGLVQPGGSLRLSCAASGFTFSSYVMSWVRQAPGKGLEWVSSIYHDGSHTYYADFVKGRFTISRDNAKNTLYLQMNSLKSEDTAVYYCASGTSYSGSYYYTDPFFGSWGQGTQVTVSS
VL: HSAVTQPSALSVTLGQTAKITCQGGSLGSNYAYWYQQKPGQAPVLVIYDDDSRPSGIPERFSGSSSGGTATLTISGAQAEDEGDYYCQSADSNGNAVFGGGTHLTVL
On to B4, for which the half-inhibitory concentration (IC50) in the experiment with human IgE [7] came out at 1.54 nM; with human IgE [8] it was 2.3 µg/mL; with human IgE [9], 2.5 µg/mL; with human IgE [10] it was 1.62 nM; with human IgE [11] it was 12.9 nM; in the experiment with human IgE [12], 10.3 nM. For the same molecule, the IC50 stood at 0.00682 µg/mL with human IgE [13] and 0.0114 µg/mL with human IgE [14].

B5: 18E2His2-hIgG1-ABDEG (antibody, V domains shown)
VH: QLQLVESGGGLVQPGGSLRLSCAASGFTFSSYVMHWVRQAPGKGLEWVSSIYHDGSHTYYADFVKGRFTISRDNAKNTLYLQMNSLKSEDTAVYYCASGTSYSGSYYYTDPFFGSWGQGTQVTVSS
VL: NFMLTQPSALSVTLGQTARITCQGDRLGSRYIHWYQQKPPQAPVLVIHDDDRRPSGIPERFSGSSSGGTATLTISGAQAEDDGDYYCQSADSSGNPVFGGGTHLTVL
Consider B5, for which the IC50 is 5.8 µg/mL with human IgE [8], 7320 µg/mL with human IgE [9], 1.49 µg/mL with human IgE [13] and 26.6 µg/mL in the experiment with human IgE [14].

B6: 18B9His-hIgG1-ABDEG (antibody, V domains shown)
VH: QVQLVESGGGLVQPGGSLRLSCAASGFTFSSYVMSWVRQAPGKGLEWVSSIYSDGSHTYYADSVKGRFTISRDNAKNTLYLQMNSLKSEDTAVYYCAKNLEHYSGSYYYTDPRYDYWGQGTQVTVSS
VL: SSALTQPSALSVTLGQTAKITCQGGSLGSSYVHWYQQKPGQAPVLVIHDGDSRPSGIPERFSGSSSGGTATLTISGAQAEDEDDYYCQSADSSGNAVFGGGTHLTVL
Regarding B6, the 50% inhibitory concentration (IC50) worked out at 2.9 µg/mL in the experiment with human IgE [8], 52.9 µg/mL with human IgE [9], 0.13 µg/mL with human IgE [13] and 2.55 µg/mL with human IgE [14].

B7: VL18B9_Y49H (18B9His) (antibody, V domains shown)
VH: QVQLVESGGGLVQPGGSLRLSCAASGFTFSSYVMSWVRQAPGKGLEWVSSIYSDGSHTYYADSVKGRFTISRDNAKNTLYLQMNSLKSEDTAVYYCAKNLEHYSGSYYYTDPRYDYWGQGTQVTVSS
VL: SSALTQPSALSVTLGQTAKITCQGGSLGSSYVHWYQQKPGQAPVLVIHDGDSRPSGIPERFSGSSSGGTATLTISGAQAEDEDDYYCQSADSSGNAVFGGGTHLTVL
Take B7: the IC50 in the experiment with human IgE [15] is 0.749 µg/mL; in the experiment with human IgE [8] it was 2.7 µg/mL; with human IgE [9] it was 58.5 µg/mL; in the experiment with human IgE [16], 4.06 µg/mL; with human IgE [13] it was 0.19 µg/mL; with human IgE [14], 3.02 µg/mL.

B8: 18E2_VH_S35H_VL_Y34H (18E2His2) (antibody, V domains shown)
VH: QLQLVESGGGLVQPGGSLRLSCAASGFTFSSYVMHWVRQAPGKGLEWVSSIYHDGSHTYYADFVKGRFTISRDNAKNTLYLQMNSLKSEDTAVYYCASGTSYSGSYYYTDPFFGSWGQGTQVTVSS
VL: NFMLTQPSALSVTLGQTARITCQGDRLGSRYIHWYQQKPPQAPVLVIHDDDRRPSGIPERFSGSSSGGTATLTISGAQAEDDGDYYCQSADSSGNPVFGGGTHLTVL
Take B8: the IC50 in the experiment with human IgE [15] worked out at 1.56 µg/mL; in the experiment with human IgE [8] it was 6 µg/mL; in the experiment with human IgE [9] it was 6310 µg/mL; with human IgE [16], 9.86 µg/mL; in the experiment with human IgE [13] it was 2.48 µg/mL; with human IgE [14], 77.2 µg/mL.

B9: 13E4-hIgG1-ABDEG (antibody, V domains shown)
VH: ELQLVESGGGLVQPGGSLRLSCAASGFTFSSYVMSWVRQAPGKGLEWVSSIYHDGSHTYYADFVKGRFTISRDNAKNTLYLQMNSLKSEDTAVYYCASGTSYSGSYYYTDPFFGSWGQGTQVTVSS
VL: HSAVTQPSALSVTLGQTAKITCQGGSLGSNYAYWYQQKPGQAPVLVIYDDDSRPSGIPERFSGSSSGGTATLTISGAQAEDEGDYYCQSADSNGNAVFGGGTHLTVL
Turning to B9, the IC50 with human IgE [8] was 3 µg/mL; in the experiment with human IgE [9], 3.2 µg/mL; with human IgE [13], 0.0065 µg/mL; with human IgE [14] it was 0.0106 µg/mL.
